Earlier results on 2 substances are cited in publication PMC2225448.

The target in data set [1] is EGFR pY1069 pY1069 (Homo sapiens) (UniProt P00533).
Data set [2] addresses EGFR pY1069 (Homo sapiens) (UniProt P00533).
Data set [3] concerns the target ErbB2 (Homo sapiens) (UniProt P04626).

Sequence of Grb7 (Q14451 whole entry): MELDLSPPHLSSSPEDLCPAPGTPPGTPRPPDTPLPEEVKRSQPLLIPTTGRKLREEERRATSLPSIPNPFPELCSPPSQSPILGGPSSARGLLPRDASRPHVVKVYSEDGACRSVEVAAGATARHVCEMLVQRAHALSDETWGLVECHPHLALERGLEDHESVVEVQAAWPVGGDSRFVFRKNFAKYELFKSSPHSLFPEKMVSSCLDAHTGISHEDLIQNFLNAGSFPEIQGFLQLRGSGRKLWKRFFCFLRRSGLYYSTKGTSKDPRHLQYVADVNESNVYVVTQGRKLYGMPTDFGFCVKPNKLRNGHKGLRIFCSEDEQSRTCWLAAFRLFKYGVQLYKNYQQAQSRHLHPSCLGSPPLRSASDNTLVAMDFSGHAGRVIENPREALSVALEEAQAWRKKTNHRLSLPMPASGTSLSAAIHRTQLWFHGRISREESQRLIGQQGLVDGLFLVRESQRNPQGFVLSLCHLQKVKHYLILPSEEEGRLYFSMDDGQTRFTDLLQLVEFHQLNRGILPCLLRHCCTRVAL

Take Cbl (from UniProt P22681): the Kd in data set [1] and in data set [2] was 400 nM in each case. As for Grb7 (from UniProt Q14451), the Kd in data set [3] was 2300 nM.
